Columns and labels:
[1] = target: T1, Amino acid residues 1-20 of human TNFR2 (human); assay: ELISA on plate-coated linear peptide S04062
T1 peptide: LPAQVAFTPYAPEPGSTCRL
Method: (§1) ELISA was also used to determine linear epitopes present on the extracellular surface of TNFR2. Linear peptides corresponding to various regions within the TNFR2 primary sequence were purchased from GenScript (Piscataway, NJ), diluted in coating buffer and placed on Immulon 4HBX Flat Bottom Microtiter Plates (Thermo Scientific) at a concentration of 1 µg/well. Primary TNFR2 agonistic antibodies (0.1 µg/well) were incubated with substrates. Secondary antibodies against rodent IgG were used to detect the primary antibodies. Absorbance was measured using the SPECTRAMAX^{®} 190 Absorbance Plate Reader and analyzed with SoftMax Pro 6.3 (Molecular Devices).

[2] = target: T2, Amino acid residues 106-125 of human TNFR2 (human); assay: ELISA on plate-coated linear peptide S04073
T2 sequence (peptide): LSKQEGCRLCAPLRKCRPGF

[3] = target: T3, Amino acid residues 162-181 of human TNFR2 (human); assay: ELISA on plate-coated linear peptide S04080
T3 peptide: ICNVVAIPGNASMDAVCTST
Method: as §1

[4] = target: T4, Amino acid residues 26-45 of human TNFR2 (human); assay: ELISA on plate-coated linear peptide S03933; Affinity cell of this row is '1+'
T4 sequence (peptide): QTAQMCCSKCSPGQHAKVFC

[5] = target: T5, Amino acid residues 130-149 of human TNFR2 (human); assay: ELISA on plate-coated linear peptide S04076
T5 peptide: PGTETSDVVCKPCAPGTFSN
Method: as §1

[6] = target: T6, Amino acid residues 138-157 of human TNFR2 (human); assay: ELISA on plate-coated linear peptide S04077
T6 peptide: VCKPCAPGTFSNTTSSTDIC
Method: as §1

[7] = target: Full-length human TNFR2 (human) (UniProt P20333); assay: ELISA, immobilised human TNFR2 / TNFR2 peptide fragments, TNFRAG1 as primary antibody
[8] = target: T7, Amino acid residues 114-133 of human TNFR2 (human); assay: ELISA on plate-coated linear peptide S04074
T7 peptide: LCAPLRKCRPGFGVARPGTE
Method: as §1

[9] = target: T4, Amino acid residues 26-45 of human TNFR2 (human); assay: ELISA on plate-coated linear peptide S03933
[10] = target: T8, Amino acid residues 74-93 of human TNFR2 (human); assay: ELISA, immobilised TNFR2 peptide fragments, TNFRAG1 as primary antibody
T8 sequence (peptide): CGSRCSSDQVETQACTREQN

[11] = target: T9, Amino acid residues 66-85 of human TNFR2 (human); assay: as above
T9 sequence (peptide): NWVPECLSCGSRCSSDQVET

[12] = target: T10, Amino acid residues 108-127 of human TNFR2 (human); assay: as above
T10 sequence (peptide): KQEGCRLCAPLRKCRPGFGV

[13] = target: T11, Amino acid residues 82-101 of human TNFR2 (human); assay: as above
T11 sequence (peptide): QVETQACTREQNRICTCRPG

[14] = target: T12, Amino acid residues 34-53 of human TNFR2 (human); assay: as above
T12 sequence (peptide): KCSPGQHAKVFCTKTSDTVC

[15] = target: T2, Amino acid residues 106-125 of human TNFR2 (human); assay: as above
[16] = target: T4, Amino acid residues 26-45 of human TNFR2 (human); assay: as above
[17] = target: T13, Amino acid residues 98-117 of human TNFR2 (human); assay: as above
T13 sequence (peptide): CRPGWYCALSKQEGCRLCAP

[18] = target: T10, Amino acid residues 108-127 of human TNFR2 (human); assay: ELISA on plate-coated linear peptide S03935
[19] = target: T10, Amino acid residues 108-127 of human TNFR2 (human); assay: ELISA on plate-coated linear peptide S03935; Affinity cell of this row is '2+-'
[20] = target: T14, Amino acid residues 146-165 of human TNFR2 (human); assay: ELISA on plate-coated linear peptide S04078
T14 peptide: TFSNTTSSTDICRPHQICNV
Method: as §1

[21] = target: T15, Amino acid residues 154-174 of human TNFR2 (human); assay: ELISA on plate-coated linear peptide S04079
T15 construct: The printed range 154-174 spans 21 residues, but the printed peptide has 20
T15 peptide: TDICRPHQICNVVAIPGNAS
Method: as §1

[22] = target: T8, Amino acid residues 74-93 of human TNFR2 (human); assay: ELISA on TNFR2 peptide, antibody alone; Affinity cell of this row is '-'
[23] = target: T9, Amino acid residues 66-85 of human TNFR2 (human); assay: as above
[24] = target: T11, Amino acid residues 82-101 of human TNFR2 (human); assay: as above
[25] = target: T2, Amino acid residues 106-125 of human TNFR2 (human); assay: as above

B1: agonistic TNFR2 antibody TNFRAG1 (antibody, V domains shown)
VH: EVQLQQFGAELVKPGASVKISCKASGYTFTDYNIDWVKQSHGKSLEWIGDINPNYDSTSYSQKFRGKATLTVDKSSSTAYMELRSLTSEDTAVYYCARGNSWYFDVWGAGTTVTVSS
VL: QIVLTQSPALMSASPGEKVTMTCSASSSVRYMYWYQQKPRSSPKPWIYLTSNLASGVPARFSGSGSGTSYSLTISSMEAEDAATYYCQQWSSNPLTFGAGTKLELK
notes: It was detected with secondary antibodies against rodent IgG; also called monoclonal TNFR2 antibody TNFRAG1; TNFR2 agonist antibody
In the case of B1, the binding result [1] is reported as “no binding”, the Affinity [2] is reported as 2 and the binding result [3] is reported as “no binding”. For the same binder, the Reading [4] was 0, the binding result [5] was “no binding” and the binding result [6] was “no binding”. For the same binder, the Affinity Score (affinity score (0 lowest to 4 highest)) [7] was 4, the binding result [8] was “no binding” and the Affinity [9] was 1. It also gave an Affinity Score (affinity score (0 lowest to 4 highest)) [10] of 0, an Affinity Score (affinity score (0 lowest to 4 highest)) [11] of 0 and an Affinity Score (affinity score (0 lowest to 4 highest)) [12] of 2. For the same binder, the Affinity Score (affinity score (0 lowest to 4 highest)) [13] was 0, the Affinity Score (affinity score (0 lowest to 4 highest)) [14] was 0 and the Affinity Score (affinity score (0 lowest to 4 highest)) [15] was 2. For the same binder, the Affinity Score (affinity score (0 lowest to 4 highest)) [16] was 1, the Affinity Score (affinity score (0 lowest to 4 highest)) [17] was 1 and the Affinity [18] was 2. The Reading [19] was 0, the binding result [20] was “no binding” and the binding result [21] was “no binding”. It also gave a Reading [22] of 2, a Reading [23] of 2 and a Reading [24] of 2. For the same binder, the Reading [25] was 2.
